Measurements published in paper doi:10.1101/2020.06.15.153577.

Key:
[1] = biological target: Drosophila Shaker channel (ShakerIR) (Drosophila) (UniProt P08510)
ShakerKD (Drosophila) = ShakerKD (Drosophila) (UniProt P08510)

Substance | EC50 of block of K+ currents, two-electrode voltage clamp on Xenopus oocytes [1] | EC50 of block of K+ currents, two-electrode voltage clamp on Xenopus oocytes (ShakerKD (Drosophila))
Conkunitzin-C1 (peptide) | 2200 nM | 108 nM
Conkunitzin-C3 (peptide) | 166 nM | 190 nM
